# ± gives the uncertainty stated by the source.
# Test: amyloid nucleation score (Sup35N fusion, yeast selection) (log enrichment); library NNK2; higher = more nucleation; inactive = no reads after selection
# Procedure, shortened: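 Nucleation score: DiMSum log enrichment of output over input reads, centred on the mode score of non-aggregating sequences. Only sequences with at least 100 input reads were kept. Reads came from Illumina sequencing of plasmid inserts before and after 7 days of growth at 30°C without adenine and uracil, in psi-negative yeast expressing Sup35N fused to peptides of 20 random codons after 24 hours of induction with 100 μM copper sulfate.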
row,Substance,amyloid nucleation score
1,KVYATVDFDLLGQAPTSAMN,4.83 ± 0.091
2,TRMNSVYKVEIRRLVKMVSW,0.242 ± 0.21
3,VSSVVLCIIIRDGSMMFYYK,inactive
4,DWCVNVIERSGDTLEVMCNF,0.817 ± 0.8
5,SCCFSMGGPVNVVQSSRMVR,-0.781 ± 0.55
6,NTFGLEILRGWSYVCLGRRR,5.323 ± 0.052
7,NFLDMEWTNLLSVMCVDFWS,4.55 ± 0.062
8,PRFIQGYILRNLCARMLKYS,-0.368 ± 0.39
9,LGSVLLRFRH,-0.469 ± 0.23
10,TPIRVFGNYNSFHFCTMSS,8.302 ± 0.053
11,QQVQNAVCGWESYCSQLNRR,-0.241 ± 0.48
12,VCVRTTWRKDGSISCTHKSP,0.5 ± 0.18
13,CNLESMQSHFMVLCTFDG,-0.044 ± 0.63
14,QCFIWSHRVIVGFHGLGLSA,-0.02 ± 0.79
15,SESVL,-1 ± 0.76
16,VSEIRDFCVVIGF,0.573 ± 0.36
17,YDRIGCRASTSLSAYPLATA,2.58 ± 0.076
18,ENDMLTYYSLLFYWIKIVSY,inactive
19,LYTLVFIKNFISMYLREILT,-1.8 ± 0.48
20,LYSCCLQCSSTNSIYEDLMC,inactive
21,ITCHGVVFSWLTRELLYTGL,-0.702 ± 0.45
22,RTVYRFNVRI,0.291 ± 0.27
23,DFFVLVGYGKVK,0.595 ± 0.53
24,MIVMLESLRRTTSQP,1.69 ± 0.21

row,Substance,amyloid nucleation score
1,WCIFL,4.87 ± 0.087
2,EIVQFLLHMYGSVREAMVAL,-1.05 ± 0.56
3,EYYINFVNNTFCVDSLRSLD,5.068 ± 0.035
4,SGGHNIVLMI,inactive
5,WECYLFFCDIVGVGVHWRSS,-0.824 ± 0.42
6,TTRSRVWRKLGSSCTI,0.242 ± 0.31
7,ALYLL,0.154 ± 0.23
8,YSASQTWCKQPIDCFIRGQN,-0.605 ± 0.41
9,QIASYDFCHRVGRMGPTVCV,-0.165 ± 0.54
10,TYRSEYCICLLLSAFFQMKG,-1.08 ± 1.1
11,YRDRDLC,-0.339 ± 0.34
12,CKWMLEENMGQEADSV,-0.289 ± 0.21
13,TLMWESYMWS,-0.897 ± 0.63
14,GVYPICV,0.416 ± 0.49
15,VFAYIHFVTLGGCLLGF,1.3 ± 0.47
16,CWFMYPSMIDWWSMTSRECF,-0.129 ± 0.18
17,TWNISILHCI,4.84 ± 0.084
18,ADSVYAVRRKAV,0.356 ± 0.8
19,SCTHLDW,inactive
20,KSTGDCFLKMINYYCGWS,6.066 ± 0.052
21,VGGRSGE,-0.159 ± 0.26
22,CIEDRVCLDS,8.276 ± 0.041
23,PFGKGKEHIKL,inactive
24,TVMLCSMISYKAVLVTYVGG,1.87 ± 0.13

row,Substance,amyloid nucleation score
1,LVNNGRVLSCYICV,9.171 ± 0.056
2,AVSIGLYFVQASP,9.658 ± 0.052
3,QFNYHNLNLTNFKSLCASTD,0.019 ± 0.61
4,MTLMKDCDMNISHSARAKAS,0.255 ± 0.18
5,DKTKE,inactive
6,FYHISEVLVVPLRLELSVQL,5.68 ± 0.07
7,VFGPPWCLGHSHWILFYVGC,-0.519 ± 1
8,CDISRGLILYTHGLLFWTIR,inactive
9,SASMHWYSSRCDTL,0.275 ± 0.29
10,PVKRQGSSAANVPVVW,0.444 ± 0.44
11,VAQVWLSNVVMYLRRAENLT,0.214 ± 0.26
12,SFPLSADEFNCSI,-0.314 ± 0.55
13,FGNGDKSGMIGINVNLLCRM,5.73 ± 0.034
14,LLHLQYHLFMLCTVVNPHLL,-0.628 ± 0.54
15,IMCRRG,0.698 ± 0.52
16,RSILEM,-0.302 ± 0.61
17,AHAPGPNEA,0.276 ± 0.8
18,ILSLEDLSLVRYGAIDS,-0.483 ± 1.1
19,MCFSIRPPGVMRVMHLTLVW,0.135 ± 0.79
20,VTVRSFTNIRSTFKLDSPLL,0.122 ± 0.29
21,KQEHSYYNLDDLGHRGSEGA,-0.536 ± 1.1
22,REFLCCGN,3.36 ± 0.075
23,GIPCGGMFCRIGS,0.524 ± 0.81
24,RINNS,-1.44 ± 0.45
